# Results from US20250236667A1, “ANTIBODIES TO MUTANT CALRETICULIN AND USES THEREOF” (CENTRAL ADELAIDE LOCAL HEALTH NETWORK INC, priority 2021, published 2025).
# T1: mutant CALR dimers and monomers bound to TpoR in TF-1 TpoR CALR^del61 (Homo sapiens, UniProt P27797)
# T1 construct: expressed in transfected cells; host or cells: TF-1 TpoR CALR^del61
# T1 sequence (P27797 with tags, fused parts or gaps limits assumed): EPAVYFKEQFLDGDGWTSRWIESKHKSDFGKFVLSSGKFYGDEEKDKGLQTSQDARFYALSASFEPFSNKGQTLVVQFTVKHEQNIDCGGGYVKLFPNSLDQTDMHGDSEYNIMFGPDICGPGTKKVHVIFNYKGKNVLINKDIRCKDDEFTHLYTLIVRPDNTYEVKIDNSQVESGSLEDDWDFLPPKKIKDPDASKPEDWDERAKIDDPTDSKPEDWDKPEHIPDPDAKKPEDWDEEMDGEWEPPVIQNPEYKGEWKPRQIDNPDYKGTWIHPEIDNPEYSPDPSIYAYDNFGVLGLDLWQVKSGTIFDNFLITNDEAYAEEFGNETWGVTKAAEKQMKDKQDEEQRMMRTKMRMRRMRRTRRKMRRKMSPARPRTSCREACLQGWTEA
# How the values were obtained:
# [1] = molecular target: T1, mutant CALR dimers and monomers bound to TpoR in TF-1 TpoR CALR^del61; assay: TpoR immunoprecipitation under non-reducing conditions; assay type: cell-based; conditions: 8 hour treatment with 20 μg/mL
# Procedure: A. Cell extracts blotted for phospho-STAT5, total STAT5, phospho-ERK, total ERK and actin from TF-1 TpoR cells after incubation with 10 or 20 μg/mL 4D7 or IgG for 4 or 8 hours, in presence of TPO. The last line indicates TPO withdrawal. B. Similar experiment using TPO-independent TF-1 TpoR CALR^del61 cells. C. Similar experiment using TPO-independent TF-1 TpoR CALR^del52 cells at 8 hours. D. Fraction of apoptotic sub-Go population of TF-1 TpoR CALR^del61 cells after 48 hours of 4D7 or IgG treatment (n=3). E. Western blot showing caspase 3 cleavage occurring within 24 hours of TPO withdrawal in TPO dependent TF-1 TpoR cells. An increase in cleaved caspase 3 is observed after 48 hours of treatment with 20 μg/mL 4D7 in TF-1 TpoR CALR^del61 and TF-1 TpoR CALR^del52 cells. F. Western blot of TpoR immunoprecipitation under non-reducing conditions showing associated CALR 50 kDa monomers and 100 kDa dimers (arrowheads) present only in TF-1 TpoR CALR^del61 disrupted by 8 hour treatment with 20 μg/mL 4D7 but not PBS or 20 μg/mL IgG. CALR monomers & dimers are detectable by polyclonal anti-wild type CALR or anti-mutant CALR monoclonal antibodies. Arrowheads, detected mutant CALR protein: asterisk, non-specific bands. G. Proposed model for the mechanism of action of 4D7 on mutant CALR. […]
# [2] = system: TF-1 TpoR CALR^del61 cells; assay: Cell proliferation, trypan blue exclusion; assay type: cell-based, human; conditions: over 5 days at 2, 10 and 20 μg/mL
# Procedure: […] Cells were seeded in triplicate and each well was counted in triplicate every 24 hours for 5 days using trypan blue exclusion.
molecule,measurement,setting,value
"4D7: rat monoclonal IgG2a antibody against the mutant CALR neoepitope; VH SEQ ID NO: 5, VL SEQ ID NO: 7 (antibody, listed as Rattus rattus, V domains shown) VH: QVQLQQSGAELAKPGSSVKISCKASGYTFTNYDMSWIKQRPGQALEWIGAINPGNGVTDYNEKFRGKATLTVDKSSSTAFMQLSSLTPEDTAVYHCAREYRDNYGYFDYWGQGVMVTVSS VL: DIVLTQTPVSLSVTLGDQASISCRSSQSLEYSDGYTYLDWFLQKPGQSPQLLIYEVSSRFSGVPDRFIGRGSGTDFTLKISRVEPEDLGVYYCFQATHDPFTFGSGTKLEIK",presence of CALR disulfide-linked dimers and CALR monomers bound to TpoR,[1],diminished
same,TPO-independent cell growth,[2],blockade of TPO-independent cell growth
